# Residue numbers refer to the chain shown, from its start.
# T1: human IL-2Rβ (human, UniProt P14784 27-240, limits assumed)
# T1 construct: Recombinant protein, coated (ELISA) or immobilised on CM5 (SPR); also called hu IL-2R; interleukin 2 receptor β-chain
# T1 sequence: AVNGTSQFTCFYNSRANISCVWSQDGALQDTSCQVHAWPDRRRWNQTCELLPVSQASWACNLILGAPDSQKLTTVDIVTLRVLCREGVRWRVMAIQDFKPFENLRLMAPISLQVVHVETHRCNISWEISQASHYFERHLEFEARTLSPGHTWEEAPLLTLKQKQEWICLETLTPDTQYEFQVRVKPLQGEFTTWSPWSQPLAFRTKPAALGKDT
# B1: FJ1427_P035MP03D10 (VHH)
# VHH: QVQLQESGGGLVQAGDSLRLSCVVSGRDFSGYTMGWFRQPPGKEREFVALITWSTGRVHYTDSVEGRFTISRDSAKNTVYLQMNSLKPEDTAVYTCAAGRVGYTTNLHSYDYSGQGTQVIVSA
# notes: soluble VHH in periplasmic extract; also called clone nr
# B2: FJ1427_P035MP03H09 (VHH)
# VHH: QVQLVESGGGLVQAGGSLRLSCAASGSIFSINAMGWFRQAPGKEREFVAAISRSGGSTAYVDSVKGRFTISRDNSKNMVHLQMNSLKSEDEAVYYCAATAAVGWTSRWITTDFDSWGQGTQVTVSS
# notes: as for B1
# B3: FJ1427_P035MP03E08 (VHH)
# VHH: QVQLVESGGGLVQAGGSLRLSCAAAGRAIENYPVGWFRRAPGKEREFVAAITWISGSTLYADSVKGRFTISRDNAKNTVYLQMSSLKPEDTALYYCAAALKTITRGQNDYSYWGQGTQVTVSS
# notes: as for B1
# B4: FJ1427 P035MP03F09 (VHH)
# VHH: B3 VHH with Q1E, R19T, A25S, I29F, E30S, R39Q, I54L, K65E, Q82L, Y95F
# notes: as for B1
# B5: FJ1427_P035MP03A07 (VHH)
# VHH: QVQLVESGGGLVEAGGSLRLSCAASGRAFNNFPMGWFRQAPGKEREFVAAITWISGSTLYADSVKGRFTISRDKSKNTVYLQMSGLKPEDTALYYCAAALKTITRGQHDYTYWGQGTQVTVSS
# notes: as for B1
# B6: FJ1427_P035MP03A09 (VHH)
# VHH: QVQLVESGGGLVQAGGSLRLACAASGRTFSTLTMGWFRQAPGKEREFVAGISPSGGYAWHADSVKGRFTIDRDNAKNTVYLQTRSLRPEDTAVYYCAADHPPYGAVASRSEYEYDDWGPGTRVTVSS
# notes: as for B1
# B7: FJ1427_P035MP03G07 (VHH)
# VHH: QVQLVESGGGLVQAGGSLRLSCAASGRTFSSDAKGWFRQAPGKEREFVAAITWAGRGTDYADSVKGRFTITRDNAKNMVYLQMSNLKPEDTAVYYCALNPEGVIGPYFRNSNRYNYWGQGTQVTVSS
# notes: as for B1
# B8: FJ1427 P035MP03E05 (VHH)
# VHH: EVQLVESGGGLVQAGGSLRLSCAVSGVIFWSDVVGWYRQASGKQRELVATINLDDTKHYGEVVKGRFAISRDSHKNAYYLQLNSLKPEDTAVYYCNVRRGSEFYWGQGTQVTVSS
# notes: as for B1
# B9: FJ1427_P035MP06H01 (VHH)
# VHH: EVQLVESGGGLVQAGGSLRLSCAVSGDVFVRYTMAWFRQAPGKEREFVASVTDSGRTTDYVHSVKGRFTVSRDNAKNTVYLQMNNLKPEDTAVYYCAANTDYFQIKSLDANTWGQGTQVTVSS
# notes: as for B1
# B10: FJ1427_P035MP03C07 (VHH)
# VHH: QVQLVESGGGLVQAGDSLRLSCAASGRSLSTDCMGWVRQAPGKEREFVAGITWGTGSTLYADSVEGRFTISKDNAKNTGYLQMSSLKPEDTAVYYCAVDRYCYRGTVYRDWGRGTQVTVSS
# notes: as for B1
# B11: FJ1427 P035MP03A06 (VHH)
# VHH: EVQLVESGGGLVQTGGSLRLSCAVSGSRFISDVMGWYRQVPGKARELVADMADGGSAKYADSVKGRFSIVRDSGKSTMYLQMSSLKPEDTGMYYCKAGLWIAGRHSDYWGQGTQVTVSS
# notes: as for B1
# B12: FJ1427_P035MP03G05 (VHH)
# VHH: EVQLVESGGGLVQIGGSLRLSCAASGRTFSSITMAYFRQVPGKEREWVAGINFSGTRTFYADSVKGRFLISRDDAKSTMYLQMNSLKPEDTAVYYCAASPRGFYGPGNALYDYWGQGTQVTVSS
# notes: as for B1
# Experiments:
# human IL-2Rβ [1] = biological target: T1, human IL-2Rβ; test: P.E. binding ELISA on coated protein
# In short: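 Plates were coated overnight at 4° C with human or mouse IL-2R chain protein, and free sites blocked for 1 hour in 4% Marvel in PBS. Periplasmic extracts diluted 1:5 in 1% Marvel/PBS then bound for 1 hour, with specificity assessed from 450 nm absorbance relative to negative controls.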
# human IL-2Rβ [2] = biological target: T1, human IL-2Rβ; test: SPR (Biacore), P.E. off-rate ranking
Binder,P.E. binding ELISA OD (human IL-2Rβ [1]) [OD450 nm],koff (human IL-2Rβ [2]) [s⁻¹]
B1,0.118,0.0012
B2,0.166,0.00184
B3,1.11,0.000149
B4,0.621,0.000347
B5,0.307,0.000281
B6,0.208,0.00048
B7,0.201,0.00286
B8,0.23,0.000526
B9,0.72,0.00101
B10,0.372,0.000533
B11,0.393,0.000195
B12,0.914,0.000351
